Experimental data taken from the DeepSol protein solubility set.

Experiment: soluble on expression in E. coli; label from the status in PepcDB or PDB records

| Sequence | soluble on expression in E. coli |
| --- | --- |
| MKMADAKQKRNEQLKRWIGSETDLEPPVVKRKKTKVKFDDGAVFLAACSSGDTEEVLRLLERGADINYANVDGLTALHQACIDDNVDMVKFLVENGANINQPDNEGWIPLHAAASCGYLDIAEYLISQGAHVGAVNSEGDTPLDIAEEEAMEELLQNEVNRQGVDIEAARKEEERIMLRDARQWLNSGHINDVRHAKSGGTALHVAAAKGYTEVLKLLIQARYDVNIKDYDGWTPLHAAAHWGKEEACRILVENLCDMEAVNKVGQTAFDVADEDILGYLEELQKKQNLLHSEKREKKS | soluble |
| MGSDKIHHHHHHMWTILCDKDSGGVLLRKGVSTSIIRSNPDLLEALPKAELYELGFFKAEDLEKVLRFFHDKNFGIHAPFIYRYRYHHPNPTSLNEEEREDTFSVNKKCAELARKIGAEYMIIHFPNALQKENWLSVYREVEREFSELAGVISVRVENVYGNDHFHSAEDYRTFLENTGCKMCVDIGHLLLDAEVYGFSPIEFIEKLSDFVEEFHIYYADFETYKKCHHAPWGESKEFLEVLEFIKDFDADFVLEPTPECEEGLEKLFEYWRDL | not soluble |
| MQVFCFTPKGEVVKLPRGATPIDFAFAIHTRIGMACVGAKVDHMRVPLWTRLKNGQSVEVITAEGQSPQATWLEHHHHHH | not soluble |
| WTVIGGYLIVAGKDATTNEMLIKRYVEKNDIVFHTLMEGAPFTIIRTEGSEEIPDENILFEVAKFAASHSRAWKLGIGSADVYWVRPDQISKTAESGEYLKK | not soluble |
| MNVVQVEYLNVAEIKALLNSTISKLNPRYTSNYMIVTAILTGARLSEIAGLTWNDINFNFNTININKSYDYFAKSFKPTKNKSSNRIIKINNTLCDVLKELRTNNTDLVFKNKRGLIPTSNAVNKALRARLEELNINRRNFHFHSLRHSHVAFLLSQGIDIYPIAQRLGHSDITTTTRTYAYLIEEYKDKNDAIIIAGLDKLEHHHHHH | not soluble |
| MVKQVFNFNAGPSALPKPALERAQKELLNFNDTQMSVMELSHRSQSYEEVHEQAQNLLRELLQIPNDYQILFLQGGASLQFTMLPMNLLTKGTIGNYVLTGSWSEKALKEAKLLGETHIAASTKANSYQSIPDFSEFQLNENDAYLHITSNNTIYGTQYQNFPEINHAPLIADMSSDILSRPLKVNQFGMIYAGAQKNLGPSGVTVVIVKKDLLNTKVEQVPTMLQYATHIKSDSLYNTPPTFSIYMLRNVLDWIKDLGGAEAIAKQNEEKAKIIYDTIDESNGFYVGHAEKGSRSLMNVTFNLRNEELNQQFLAKAKEQGFVGLNGHRSVGGCRASIYNAVPIDACIALRELMIQFKENA | soluble |
| MGSDKIHHHHHHMDTQRGSLRGKAHKARLKMTPNGRRQLLLERGAAFSKNRTPGLKHVDRHTIVDSDGLSIHTYMVGHAENATATVVFIHGFTLAAEVYYMQVDYLQTFYPNIKSVLIDARGHGATGQIRPELCTIEGTANDVLAAIHEHAPTGPLILVGHSLGGLTALNLVKRADHSLRKRIVGMVLVATSIESLSTQGLPQVLASPLADNIKNAVEAAPNDAQKFRQYATTFLAPTLATAVFQRDTNDEVIDFHAAMIHETPLDTFVGFFDDLQEHDELDAAPALEGLKGYVLAGELDDVTPISQADRICEVWPGARLQIAEGAGHMLPLEAPGILNNAIGNILDGLG | not soluble |
| STFSKAAPSVPSKPSDCNFISNFYSHSRLHHISMWKCELTEFVNTLQRQSNGIFPGREKLKKMKTGRSALVVTDTGDMSVLNSPRHQSCIMHVDMDCFFVSVGIRNRPDLKGKPVAVTSNRGTGRAPLRPGANPQLEWQYYQNKILKGKAADIPDSSLWENPDSAQANGIDSVLSRAEIASCSYEARQLGIKNGMFFGHAKQLCPNLQAVPYDFHAYKEVAQTLYETLASYTHNIEAVSCDEALVDITEILAETKLTPDEFANAVRMEIKDQTKCAASVGIGSNILLARMATRKAKPDGQYHLKPEEVDDFIRGQLVTNLPGVGHSMESKLASLGIKTCGDLQYMTMAKLQKEFGPKTGQMLYRFCRGLDDRPVRTEKERKSVSAEINYGIRFTQPKEAEAFLLSLSEEIQRRLEATGMKGKRLTLKIMVRKPGAPVETAKFGGHGICDNIARTVTLDQATDNAKIIGKAMLNMFHTMKLNISDMRGVGIHVNQLVPTNLNPST | soluble |
| MTSVDCTAYGPELRALAARLPRTPRADLYAFLDAAHTAAASLPGALATALDTFNAEGSEDGHLLLRGLPVEADADLPTTPSSTPAPEDRSLLTMEAMLGLVGRRLGLHTGYRELRSGTVYHDVYPSPGAHHLSSETSETLLEFHTEMAYHRLQPNYVMLACSRADHERTAATLVASVRKALPLLDERTRARLLDRRMPCCVDVAFRGGVDDPGAIAQVKPLYGDADDPFLGYDRELLAPEDPADKEAVAALSKALDEVTEAVYLEPGDLLIVDNFRTTHARTPFSPRWDGKDRWLHRVYIRTDRNGQLSGGERAGDVVAFTPRG | soluble |
| MGNQLDRITHLNYSELPTGDPSGIEKDELRVGVAYFFSDEEEELDDRSQSDSFKDNNSPSKDGPVARNEIEYTAFCCQECIYSKLRENEDLNVYSVKTLLTMCKPGDLLELVANAQPPHWAIFEGEDQVIHLYKGEIRKDSLFEISCGRQARIVNNRYRYRPLPADLVMQNASGHVGLSSGEICWTNSESFAAWCRFGKREFKAGGEVHSVEQRYFLKVHLSESTAHTLMFRSLEEMIRERRRVDASGILKELSLVTGKE | not soluble |
| GCDLERYPLTDLSEETFWNSESNAELALTSLYRGSLTDGVEYNPSDWWSYHGMIMMEHLSDNAFDRRGENNPFFKISSGNLTADNAFIKRYWETSYKRIGYCNRFLVGIQNSSESEKKTRMIAEARFLRATQYFYLASYFKNVPLVENVLTGEEANNVTKTSQADILKWCVTEFTAAAADLPRFSAIPAGEAGRACKQAALAFLGRTCMLQKDWKSGAKAFHDIMELGDNAINANYQELFYPSTGTSNKENIFYIQYLENYLGTGLPQHALSAKDGGWSLVNPAADLYESYEFKDGTPFSYDDPRYDPSNLGKDRDPRLDYTIYYNGAIFMGTEYKMSPDYSAAKKEKLDYTSEASRTGFMMRKYFEESTPINDVQSANGLTPVIRYAEVLLGYLECLVEDNQTITQGILDETINAVRGRASVNMPPVTEVTPAKLREIVRHERRIELAMEGIRYWDIMRWGIAHEVLSQKIWGAPYPGSTQYATTTKEVDPTGNYRWYVGKRAFRNPTDYTWPIPQSEQNINPNLRD | soluble |
| MSLKLVLHSAKRASAPYRVRIGLNLKGLAFELRPVDLVANAHQGEAYRALNAQALVPTLEVDGRPLTQSLAILEWLDETYPAHPLLPTDAFDRATVRAMAEIIACDIHPLNNLRILRQLTALEIDEPARNAWVARWIQDGFSALEPMIARHGQGYAFGDAPGLVDCLLVPQVFNANRFNVDLSPFPALEAAAAHARAHPAIAAAHPDHHPEEGHHHHHH | soluble |
| MGSDKIHHHHHHMGNKTSQKVLLELLKDRDRWVSGNEIADSLGVTRETIWKNINLLKKRGHQIQSQKNLGYKYESSSKLDEVVINFYKNKSVDHVAVEEQVDSTQMYAKNYLATHQVEKAFAVISEQQTQGYGRRGRSFYSPKEQGLYFSIVIPKPTFEINQVGLITTGVAYVIAQTFKDFFPEREFKLKWVNDILMNRRKVAGIITEAITEVESASTQAFVIGVGINLTTPEFPEELQQKAGAIVAKNEPNIDRNLIAAQLINTIVDNWQNYLDGSFLSEYRRMSIVIGKPVTLQVGTKQVKGIATDINEYGNIVVKLDDGQVKAFNNGEITKVNLDW | not soluble |
| MKPNPPINELVLLQAHQLAERIRLRQVSCREVMQAYLAHIERFNPRVNALVSLLPAERLLEEADARDGELARGEWRGWMHGLPHAIKDLSLTRGIRTTLGSPLYRDYIPERDGIMVERIRAAGAILIGKTNTPEFGLGSQTYNPLFGATACAYDERLSAGGSSGGAAAALALHLVPVADGSDMMGSLRNPAAFNNVIGFRPSQGRVPFDDSADLFFDQLGYEGPMGRSVRDTALLLSVQAGADRRAPLSIAEPGARFAAPLERDFEGTRLGWLGDLDGYLPMQDGILQMCQRALGDFRSLGCEIEEANLGFAPERLWECWRTLRHWLVAGSLGGVHADPAKRALLKPEALWEVENGLRLGADAVFRASVIRSDWYRAIGRLFERYDYLLLPSAQVFPFAKETPWPRSIEGVAMDTYHRWMEVVVPGSLSGCPVANVQAGFNAEGLPMGLQIIGPHQADFAVLQLAHAYERASRWFERQPSPLLAN | not soluble |
| MGHHHHHHSHMCSALVVAAPHSGSGKTTVTAAIARYHRVQGRKVTVFKVGPDFIDPMILRQASGELVYQLDLWLVGEQGCRALLHRAAMDSDLILIEGVMGLFDGTPSSADLAKYFNIPVLGVIDAKAMAQTFAAVTFGLAKFCEDLPFSGVIANRVNTERHAELLSVSLPKAFRFYGRIPKDDTITLPERHLGLVQAQELSDIDVQLDKAASHIANTG | not soluble |
| MGHHHHHHSHMALVTVQRSPTPSTTSSPCASEADSGEEECRSQPRSISESFLTVKGAALFLPRGNGSSTPRISHRRNKHAGDLQQHLQAMFILLRPEDNIRLAVRLESTYQNRTRYMVVVSTNGRQDTEESIVLGMDFSSNDSSTCTMGLVLPLWSDTLIHLDGDGGFSVSTDNRVHIFKPVSVQAMWVDRDSRNKHCDVLLVEE | not soluble |
| MGSDKIHHHHHHMPSTNPFLTLPYEPAFASLGSEFSDPVEAATFPAHQLRFRNDRLLPILGLDPATVTDEHFIEAFGRFQGRSPLLAMRYHGYQFGIYNPDLGDGRGFLYGQVRGRNGWLYDFGTKGSGRTPYSRGGDGKLTLKGGVREVLASEFLQRLGVRTGRCLSLIETGEELWRGDEPSPTRSSVMVRFNRTHIRFGTFERLHYFKRADLVRQLLDHVIATYYSHLLGDPEADAKFYAELTERTADLAAQWMAAGFCHAVLNTDNLSIVGESFDYGPWAFLDRFDPKFTAAYFDHSGRYRYENQPGICQLNLELLQVPLGMVMSAADLEAGIAGFGDRYQATYSRLMLRRLGFEADQLHSAIADDLIITTLQLLLRAPIGYNEFFARLRAQFQPSWRSDLSAILPDWITTDLEALPEAQWQGWRDRYHQLLTHLPESQLPLIQQQLAQANPEIAPIRPVVESVWDPIAIDDNWEPLEALLNRWRHDGDGAADGVVVPNAN | not soluble |
| MVMKREVVGYTTMSEHLIDTQLTRSPFFFASANQSMLGCGVAHAFQQAIPFAELANQAKQLLQQAKRDECDNPLLFGIVPFDPKTPTRFMIPRTLYVSSSPRLNRPAHLTRQVAKLISSPSGEQYKQGVSHLLNMFHHSGLSKVVLSRAIEIATEQEIALPTLLRSLLAINHHGYTFAASLDEQRKLIGASPELLVAKRGNYLISNPLAGSRPRSQDAQENAQRRASLLNTAKDLHEHGLVVEEVERIMSRYCRNLYTPMVPSVIETETMLHLSTLLEGQVSDPEVCALQVAADLHPTPAVCGFPRESAYQAIRELEEFDRGYFTGMVGWCDARGNGEWVVTIRCAEVGSHQMKLFAGAGIVDESLPQSELEETGAKMKTILAAAGIELNDVLTA | not soluble |
| MSLSRIRKAPAGILGFPVAPFNTQGTLEEEALFQNIEFLLNEGLEAIFIACGSGEFQSLSQKEYEQMVEVAVSAAGGKVPVYTGVGGNLSTALDWAQLSEKKGADGYLILPPYLVHGEQEGLYQYAKTIIESTDLNAILYQRDNAVLSVEQIKRLTECEQLVGVKDGVGNMDLNINLVYTIGDRLGWLNGMPMAEVTMPAYLPIGFHSYSSAISNYIPHISRMFYDALKNGNDELVKELYRHVILPINDIRKQRKGYAVSLIKAGMEIMGLNVRNTARPPVGPVEKDHYQQLEAILKQPADRFPKKEGHHHHHH | soluble |
